Measurements as given in the DeepSol protein solubility set.

Assay: soluble on expression in E. coli; label from the status in PepcDB or PDB records

Soluble on expression in E. coli, not soluble:
MGSDKIHHHHHHMHKDVSQLPQKANPALVKQANLFADLPTKLIEDFQQEFQLNQWNKGDYINSDILTQRFFVVIEGNIEIKQSNPDTGREATLDMLYAGDCFDLMVLLDNQPHEVIISPLTTVKLLSVKLSTMRYWLWTYPEFNQQFMPYIAKKMREKEQQASSLILHDVTTRLSRIILEHINKIKFYTGTKEEEHQHHLVNGLNDETLARMTGSVRQVINKQLQHWKKEDVIDKKRNQLIIKDLEALEKEAKYTQNLANAPLSKS, MGSDKIHHHHHHMHLELRHLRTIRAIHQAGGLARAADVLHMTQSALSHQVKGLEDQAGIELFVRRSKPLKLSAAGIRLLRLAERILPEIDALEDEFRALRSGRTGRLHIAIECHACFEWLFPVLELFRHAWPEIDVDIRAGLAFEALPALMREEVDLVISSDPVTVEGMVFNPLFDYHPTFVAAASNPLAAREFISAEDFRDQMLITYPVSRDRLDVFTEVLTPAKVEPRGTRQVELTAVILMLVASNRGVSVLPDWVLRDVRSHADYVTRPLGPKTVTKRLYAATRTEDATKPFMAHFLRLGRSEPVKLQRA, MGSDKIHHHHHHMIAGVPSVHPLPNMNHVEVKGVDLPAQIAQQVRKLINRGTLAPGLQLRQSDLADRFGISRVPVREALKLLAAEGIIEHDPNRGFFVAPLSTDEARQLYRYRFLLERELLKTVEWPDSTQMKALKAMLERLDSYLDSGQRAEWIDEYQDFYALLFDLSPDKILRREAIRLIRLTDRYRALASEVRVPGEQRTAHLEHTLLAAMSKRDRAQLIRGFEREREKILASMLARIDARGL, MGSDKIHHHHHHMIAVLRINHRPFRDKRITTHVALTARAFGASSILVDEKDETLEQTINKVVENFGGNFFIKSGVDWKREFRNFKGIRVHLTMYGRPLEDVVKEIRESKKDVMILVGSEKVPFEAYEIADYNVSVTNQPISEVSALAIFLDRFYDGEELNWRFTGKINVYPSERGKKVKIIPDEQGCLDLLYKYGASDYLINHVKSVKELAVAIAKKTNADINLVTAGALLHDIGRTQVQGITHAVVGADILRREGIDDRVVSIVEKHIGAGIQSEEAVKLGLPPDNYVPETIEEMIVAHADNLFAGDKRLKLQQVVDNYRKKGLEDAAERIAKLHKFLSTVIGQDMDEI, MGSDKIHHHHHHMIDLSTDYLGLKLKNPLVPSASPLSRNLDNALRLEDAGAAALVMYSLFEEELRAEDAMLDRFLTCPDFGHSEAANFLPSAPFEDGLERYVSQLQKLKARLGIPVIASLNGVSRSGWVELGRALEEAGADALELNVYHVAAEMWENGEAVEARYLSLLRDLRHAVKLPIVMKLSPFFSSLPNFVKRLEHAGAQGVVLFNRFYQPDIDLDTLCVVDRLHLSYPDEALLRIRWLSILHGRTGLTLAATGGVHSHDEALKMLLVGADVIHLASCLLQHGPARLTRILQDIERWMGERDYASVAQLKGSMSQKNLLDPAAMARLSYLRVLDSFSPQPGVWS, MGSDKIHHHHHHMIDPDDMDHCRHAIREGSYSFHAASKLLPSSVRDPALALYAFCRLADDEVDFGADKPAAVLALSERLEHAYQGRPRNHPTDRAFTAMIEEFDMPRALPEALLEGLAWDGMERRYATLSDLRSYSARVASAVGAMMCVLMRVRDEQALARACDLGVAMQLTNIARDVGEDAAERRLYLPTDWLEEEGIDIERLFTSPVSSPRLKRLTKRLLAEAHKLYLKSEPGIGRLPLAARPGIFAARHCYDAIGRNLAQHGYDNVNRRATTTGGHKMRLLGLSIVRAGLASILPESPVIFARPLPETAFLVEAAAHPAPNKDAWSDPLLSVLSQLKAQDRPHAAE, MGSDKIHHHHHHMIEQLIQQAQPYWQQYIEHEFVQQLAKGTLPKACFQHYLKQDYLYLFHYSRAFALGVFKAKNFAEMETPRKTLEILCQEIQLHLNYCREWGISEQEIFTTQESAACIAYTRYLLDCGMTGSLAELYAAVTPCALGYAQVARYITQHYPRLPNNPYQTWIDTYASEEFQQAAQETVDFLTALCKPLNPSQLAEIQQIFTTATRMEIAFWQMGLDLA, MGSDKIHHHHHHMIERVINNIEKVIKGKREAIEVVVAALLAKGHVLMEDVPGVGKTMLARALALSLGVDFRRVQFTPDLLPTDLTGLYIYDRKKEDFVFKKGPVFTDVLLADEINRATPRTQSALLEAMAEGQVTVDGVTHRLSERFFVIATQNPIEYEGTFPLPEAQLDRFMICVKMGYPDEEAEIQMLTSQEKEHPISQLEPVMNPDELSELQKKVRNVFVSDEVKKYIVDIASATRNHPSLLLGMSPRGSIALMHFSMALAFMDGRDFTLPDDVKRAAVYVIPHRVIQSAESKLKREKKEDIVREILDRVKVVK, MGSDKIHHHHHHMIFSMSSLHDMRFICLRTAPLKNSAYLLSALLIIACQPTSPTEALTSENNEMVDMPLISADSVTITPDHILSIKPTRYQPSLGLQGRIDSIKQINLVAGQPLTVEQVLVSENQWVKKGTPLLTVRRQEIFNKPTMSDDPATDVDASLNTTASNIDRASASDNTSQTSDLITLRARFSGRVENLSVQAGQKIEAQTALLKLSDATELHFISTLPIEAESQISVGQTVNFTAEDRVDKFTGQVSKVQALKQPIQLLVYVNVINNEVSRNQLAPGMQVTGRVDYGQIEVGTIVPKNALHNVDLTQIQVPPYKPLRSLTANIWIIGQDQRLTRQPIEVIEYDPLTKQYLIAGISSDSLICLANLPIESKGKKVVVS, MGSDKIHHHHHHMIHEQDVQKLLNYITSHFGVDPERWFHPEGYQSIALAILDSIYSTGNRYTGVLNLVNRYCGLRANEGSHPEADTATDLIETFYRWGGVDEFVLKTNNRWRTSSKIHAPYKAYAALEAAKVLAGHSIESISDVVGRFDSRESREHSDIAREWLMITGQSSALTWSYFLMLVGVPGVKADRMIVRFVTHVLERPKEISRHEASRLIEEVADIMCVNYIYLDHTIWRFQSGRPYLQEDSSPFE, MGSDKIHHHHHHMIIEHARDMLKRERLFFDKMQAHIGEVNGTISIGCSSLIGQTLLPEVLSLYNAQFPNVEIQVQVGSTEQIKANHRDYHVMITRGNKVMNLANTHLFNDDHYFIFPKNRRDDVTKLPFIEFQADPIYINQIKQWYNDNLEQDYHATITVDQVATCKEMLISGVGVTILPEIMMKNISKEQFEFEKVEIDNEPLIRSTFMSYDPSMLQLPQVDSFVNLMASFVEQPKA, MGSDKIHHHHHHMIIGMSIARMFSRCTPIPNLSVRYNLDLYHLEFPIMAFIRQEDFIDSIHQALQYIACYHSPDFLAAMHDAWQREPSPAARDAIGQILINSYLCAQGQRPLCQDTGIVVAFVSVGMNVQWQASMSLQEMVDEGVRRAYLDPDNRLRASIVRDPAGKRLNTRDNTPSVVHVDMVPGDTVEIHIAAKGGGSENKSKLAMLEPSDDLIEWVLKTVPEMGAGWCPPGVLGIGIGGTAEKAVLLAKQSLFAPIDIQALRARGPQTRAEELRLEIYEKVNRLGIGAQGLGGLTTVLDVKILEAPTHATSLPVAIIPNCAATRHVHFTLDGTGPARLPAPRLEDWPRVALDASTPMRRVDLGKVTREDVISWQPGEKLLLSGKLLTGRDAAHKRIVDLIARGEPMPEGLDFTNRFIYYVGPVDPVGDEIIGPAGPTTATRMDRFTETMLTQTGLLGMIGKAERGEATVQSIKRHQSVYLIAIGGAAYLISQAIKASRIVAFADLGMEAIYEFTVEDMPVTVAVDSRGHAVHDTGPAEWRPRIANIPIFSE, MGSDKIHHHHHHMIIIELNKRQEHIIQIVKDHGPITGESIAAQLGLTRATLRPDLAILTMAGYLEARPRVGYFYTGKTGGQLLSEAVKKIKVQDYQSRPVVIDKNVSVYDAICTMFLEDVGTLFVVDQSTLLVGVVSRKDLLRASLGKQDLTSLPVNIIMTRMPNIAMCRREDSLYDIAMELIERQIDAMPVVKDTKQGLEVVGRITKTNITRAFVNLVNNE, MGSDKIHHHHHHMIINNVNMVLSQEIIHGSLEVRNGVIHHINDRPSRHPGALDGEQAWLLPGLVELHTDNLDKCFTPRPGVNWPSEAAMRNHDALIISSGITTVLDAVAVGDVRDGGHRLENLRRMTDAVLYSQQHGTNRADHHLHLRCELPHQDTFPLFEQLADIPLVALASLMDHSPGQRQFSSQEKYHQYYKGKYHLNDEQMAAFEEEQLAGSRRWSQPNREAIVRLCHEKGITLASHDDATSEHITESHQHRVAIAEFPTTEIAAQQAHGVGMNVLMGAPNVICGGSHSGNVSAHHLATLGVLHILSSDYYPASLLEAAFMIAEDERNDYDLPRAIALVSNNPAQALKFDDRGCIEEGRRADLLLVKRHAPQMKLMRVWRQGVRVF, MGSDKIHHHHHHMIKITQVRDGGNHVTQSTLTLDAWVERMKEEVKTCPVTMFRSQLRHVLPGDHCEAADKLPKMMPAAEFRKTEGGQCMKAYNGLVELTVGPLAGRAEVEQVKREAWKLPQTRCAFMGASGHSVKILVAFTRPDNTLPLTRAEAEAFHAHAYIMAVKCYQPQLSFDIRPKEPFLEQYSRLSYDPDVLYRPDSVQFYLSQPMGMPDEMALHTEPAVSGQRPLERALGSYETADALSMLFEAALRQAYIDLDKPDPADEKSSYSWDTLLSQLALNCFRSGIPEEAVVSRARFRHFVRKPLELVRQVVRNVYSRRQDFGSKCALSREQQLSVLIAEFMKRRYEFRFNVQTGEAEFRERHSFCFRFQPVDKRALNSIALDAQAEGIPLWDRDISRYVYSNRVPVYNPLEDFLFNLPEWDGRDRIRPLAQTVPCDNPHWPELFHRWFLNMVAHWRGMDKRYANSVSPLLVGAQGTRKSTLFDFLKLYLA, MGSDKIHHHHHHMIKMRIKPLEEYRIGLRQSSGIVIENVDVISAFPSPTTILGIIGAMKNAKPSQLSGIDDLREAYTSLTGNNTLSGDCDSSDNPLIWGPLIKEKDNKIYTPLFFNKLILDPIEYVKTSLNENVKVQSESLVKEIGIQIRRMNQMNRGSRNTIHLFYQKFFGSNYELEYCINIDDLKKLVKENVVALGGENRYARVRIDNGNCNFGNGNYAILLQPLLFESDSEYFVRLDNVKGLGCIDEIYGVLVEKGNKIDFNNFKVKVVYYALGYGNERRPMLQALPPGTVIKVKETCNNAKALGLLSELGFGAIYRVDPGNR, MGSDKIHHHHHHMIKVAAAGGGTGGHLYPLLAILETLAKRVDVKVLFFAVKGKIDERVVRKDHPEFETVSIDVRGLLRPLHHPKNLWRTLKIGIATIEVKKHLKRFKPDLVVLTGGYISGVVGLAAKDLGIPIFVHEQNVVPGLAVKVLSQYAKKVFVSFERTRDYLREWQDKIVVTGCPVRETEKEAPLKDFVLVLGGSLGSEAINELMEKVYPELQETQFVHSTGSDDWTERLSVFPNVTALTYIDPMGAYWKKAIASISRAGASTIAEMMYYGVPGILIPWESSAESHQLENALEAERLGYAIVIRENEASPRKIIESIDKVVKKGKIEKMKENPASKISKEILGEIM, MGSDKIHHHHHHMILLVGGEKGGSGKSCLAQNIAVHISQKHDANVLMVDCDPQRTTSDWIQARNNDPSLKAINCIQLYGKIRNDLLSLNDRFDYVIVDCGGQDNLAMRAAMSVATYVVIPLRPKRRDLKTLPHMEDMLSTCKMVNPKMIAAIVITQCPALPSQGKRILEAKEVVESFGLRALNSVTFSRNIYDDSEESGSSVLEIDPSGKAADEIRAIADELFAIPPENSYEFN, MGSDKIHHHHHHMILNSRTIDDAKFFDKPILLFFTDENCKDCDTIYSKLQDSTIFSKYIGKKVNALEYIHYTIRLTRGMIPTITILSPTLDLLAVIESKDLKFIENKLRELLDEYKRRIVKGIKLEGYTPDPIEPTPSIIYETINKVIGGYEADTRMIEVYLTYTNVYKEYLKAKDKIKCSDDVARYLLEGKGEIKIDEKSSANVSMLVNYGVTSVQKLLDFIDINSGEVYRSKKKETKGILLDEALAGNALVSEYERTINEEYLSLAIKVADYIKNNLQHERGFRDIKEIDNITKVPYLEPISNSEASIFFSRLWNITGDETYKNLALKGLGSALGGALNNPKVIARAAIAYLKLFDSIKANRYLNIIDARITVVKNNGCNDSMLYYSGQCYSKIDEIQPTAF
